Source: US20090214534A1

How the values were obtained:
[1] = target: interleukin-1 type 1 receptor (UniProt P14778); assay: cell-based or functional assay
[2] = target: human serum albumin (human) (UniProt P02768); assay: sandwich ELISA, HSA-coated plate, control antibody at 1 µM, anti-FITC detection

UniProt P14778, sequence (P14778 18-569 limits assumed): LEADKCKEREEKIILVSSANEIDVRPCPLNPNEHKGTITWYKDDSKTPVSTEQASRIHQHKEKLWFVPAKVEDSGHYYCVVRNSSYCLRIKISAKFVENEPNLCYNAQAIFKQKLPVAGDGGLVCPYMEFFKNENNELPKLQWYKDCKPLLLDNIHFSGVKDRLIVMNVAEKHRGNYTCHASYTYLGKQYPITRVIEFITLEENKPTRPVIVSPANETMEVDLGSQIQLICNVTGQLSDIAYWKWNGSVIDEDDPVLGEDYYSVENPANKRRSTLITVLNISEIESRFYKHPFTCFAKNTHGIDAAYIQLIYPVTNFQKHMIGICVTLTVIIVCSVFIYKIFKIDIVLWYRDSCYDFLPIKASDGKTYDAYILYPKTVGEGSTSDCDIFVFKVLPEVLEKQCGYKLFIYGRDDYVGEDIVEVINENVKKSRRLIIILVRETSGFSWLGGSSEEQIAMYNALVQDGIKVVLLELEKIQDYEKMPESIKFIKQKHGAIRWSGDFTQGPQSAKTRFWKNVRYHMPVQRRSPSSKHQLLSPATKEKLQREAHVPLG

Substance | ND50 (neutralizing dose 50) of IL-1-induced IL-8 secretion by MRC-5 cells [1] [nM] | OD600 [2] [OD600]
recombinant human IL-1ra (from UniProt P18510 26-177) (ligand) | 0.5 | 
FITC coupled antibody (negative control) |  | 0.049
